According to patent US20140065163A1 (MERCK SERONO S A, published 2014):
Like-named read-outs stand apart in the source and are kept apart here.

T1: macaca GM-CSF (Macaca mulatta (identical in Macaca …, UniProt Q0MUT8 18-144 (Chlorocebus aethiops entry), limits assumed))
T1 chain: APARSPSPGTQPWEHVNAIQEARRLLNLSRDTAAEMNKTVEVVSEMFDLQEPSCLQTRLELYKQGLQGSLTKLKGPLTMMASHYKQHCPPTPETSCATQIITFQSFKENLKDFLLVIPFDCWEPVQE


Tests used:
human GM-CSF I117 [1] = biological target: T2, human GM-CSF I117 (human, UniProt P04141 18-144); assay: cell-based or functional assay
Target sequence in this assay (P04141 18-144 limits assumed): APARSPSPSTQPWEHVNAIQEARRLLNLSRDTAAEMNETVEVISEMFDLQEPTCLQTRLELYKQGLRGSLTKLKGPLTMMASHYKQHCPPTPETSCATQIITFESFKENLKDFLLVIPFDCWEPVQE

human GM-CSF T117 [2] = biological target: T3, human GM-CSF T117 (human, UniProt P04141 18-144); assay: cell-based or functional assay
Target sequence in this assay (P04141 18-144 I117T limits assumed): as the sequence (P04141 18-144 limits assumed) above, with I100T counted along it

macaca GM-CSF [3] = biological target: T1, macaca GM-CSF; assay: cell-based or functional assay
human GM-CSF A117 mutant = biological target: T4, human GM-CSF A117 mutant (human, UniProt P04141 18-144); assay: competition ELISA: antibody on coated wild-type human GM-CSF, competitor soluble human GM-CSF A117; single condition, competitor concentration not shown
T4 construct: also called hGM-CSF A117; A117 protein

human GM-CSF I117 [4] = biological target: T2, human GM-CSF I117; assay: cell-based or functional assay; remark: listed apart in the source
human GM-CSF T117 [5] = biological target: T3, human GM-CSF T117; assay: cell-based or functional assay; remark: listed apart in the source
macaca GM-CSF [6] = biological target: T1, macaca GM-CSF; assay: cell-based or functional assay
human GM-CSF I117 [7] = biological target: T2, human GM-CSF I117; assay: cell-based or functional assay; remark: listed apart in the source
human GM-CSF T117 [8] = biological target: T3, human GM-CSF T117; assay: cell-based or functional assay; remark: listed apart in the source
macaca GM-CSF [9] = biological target: T1, macaca GM-CSF; assay: cell-based or functional assay
human GM-CSF I117 [10] = biological target: T2, human GM-CSF I117; assay: KinExA, affinity in solution
Method: (§1) The 4K21 and reference antibodies were incubated at concentration below the expected Kd with serial dilutions of human GM-CSF I117 or T117, or macaca GM-CSF up to equilibrium. The remaining free antibody was measured in a Kinetic exclusion assay with the KinExA® instrument. Kd was calculated by fitting the curve of the signal obtained versus the GM-CSF concentrations. The average of two experiments using different IgG concentrations was calculated.

human GM-CSF T117 [11] = biological target: T3, human GM-CSF T117; assay: KinExA, affinity in solution
Method: as §1

macaca GM-CSF [12] = biological target: T1, macaca GM-CSF; assay: KinExA, affinity in solution
Method: as §1

Fold improvement of 4K21 H93Y alone on I117 (IC50, TF-1 proliferation) (human GM-CSF I117 [1]) [fold] | Fold improvement of humanized parental 4K21 on I117 (IC50, TF-1 proliferation) (human GM-CSF I117 [1]) [fold] | IC50, inhibition of GM-CSF induced TF-1 proliferation (32 pM GM-CSF) (human GM-CSF I117 [1]) [pM] | Fold human T117/I117 (IC50, TF-1 proliferation) (human GM-CSF T117 [2]) [fold] | Fold improvement of 4K21 H93Y alone on T117 (IC50, TF-1 proliferation) (human GM-CSF T117 [2]) [fold] | Fold improvement of humanized parental 4K21 on T117 (IC50, TF-1 proliferation) (human GM-CSF T117 [2]) [fold] | IC50, inhibition of GM-CSF induced TF-1 proliferation (32 pM GM-CSF) (human GM-CSF T117 [2]) [pM] | Fold improvement of 4K21 H93Y alone on macaca (IC50, TF-1 proliferation) (macaca GM-CSF [3]) [fold] | Fold improvement of humanized parental 4K21 on macaca (IC50, TF-1 proliferation) (macaca GM-CSF [3]) [fold] | Fold macaca/human I117 (IC50, TF-1 proliferation) (macaca GM-CSF [3]) [fold] | IC50, inhibition of GM-CSF induced TF-1 proliferation (32 pM GM-CSF) (macaca GM-CSF [3]) [pM] | binding result (human GM-CSF A117 mutant) | Binder | also measured
1.6 | 6.7 | 18 | 1 | 9.5 | 77 | 18 | 1.8 | 15 | 3 | 54 | binds | MSB0010599 4K21 (4K21 hVH S55R-T62S hVL N28I-H34S-N53R-H93Y) (antibody, V domains shown, IgG) VH: EVQLVESGGGLVQPGGSLRLSCAASGFAFSAYDMSWVRQAPGKRLELVAYISSGGRSFYYPDSVKGRFTISRDNAKNSLYLQMNSLRAEDTAVYYCTRHLGFDYWGQGTLVTVSS VL: DIVMTQSPLSLPVTPGEPASISCRSSQSLVNSIGNTYLSWYLQKPGQSPQLLIYKVSRRFSGVPDRFSGSGSGTDFTLKISRVEAEDVGVYYCSQSTYVPPTFGQGTKVEIK | 
0.8 | 3.2 | 37 | 1.2 | 3.7 | 30 | 46 | 2.2 | 18 | 1.2 | 44 |  | MSB0010595 4K21 (4K21 hVH S56V-T62S hVL S27eY-N28I-H34S-N53R-H93Y) (antibody, V domains shown) VH: EVQLVESGGGLVQPGGSLRLSCAASGFAFSAYDMSWVRQAPGKRLELVAYISSGGSVFYYPDSVKGRFTISRDNAKNSLYLQMNSLRAEDTAVYYCTRHLGFDYWGQGTLVTVSS VL: DIVMTQSPLSLPVTPGEPASISCRSSQSLVNYIGNTYLSWYLQKPGQSPQLLIYKVSRRFSGVPDRFSGSGSGTDFTLKISRVEAEDVGVYYCSQSTYVPPTFGQGTKVEIK | 
1 | 4.1 | 30 | 5.8 | 1 | 8 | 172 | 1 | 8 | 3.2 | 96 |  | humanized parental 4K21 hVH hVL + H93Y (MS100305-A) (antibody, V domains shown) VH: EVQLVESGGGLVQPGGSLRLSCAASGFAFSAYDMSWVRQAPGKRLELVAYISSGGSSFYYPDTVKGRFTISRDNAKNSLYLQMNSLRAEDTAVYYCTRHLGFDYWGQGTLVTVSS VL: DIVMTQSPLSLPVTPGEPASISCRSSQSLVNSNGNTYLHWYLQKPGQSPQLLIYKVSNRFSGVPDRFSGSGSGTDFTLKISRVEAEDVGVYYCSQSTYVPPTFGQGTKVEIK | Fold improvement of humanized parental 4K21 (IC50, TF-1 proliferation) (human GM-CSF I117 [4]): 2.3 fold; IC50, inhibition of GM-CSF induced TF-1 proliferation (32 pM GM-CSF) (human GM-CSF I117 [4]): 42 pM; Fold human T117/I117 (IC50, TF-1 proliferation) (human GM-CSF T117 [5]): 3.7 fold; Fold improvement of humanized parental 4K21 (IC50, TF-1 proliferation) (human GM-CSF T117 [5]): 6 fold; IC50, inhibition of GM-CSF induced TF-1 proliferation (32 pM GM-CSF) (human GM-CSF T117 [5]): 154 pM; Fold improvement of humanized parental 4K21 (IC50, TF-1 proliferation) (macaca GM-CSF [6]): 5 fold; Fold macaca/human I117 (IC50, TF-1 proliferation) (macaca GM-CSF [6]): 2.6 fold; IC50, inhibition of GM-CSF induced TF-1 proliferation (32 pM GM-CSF) (macaca GM-CSF [6]): 111 pM
0.9 | 3.6 | 33 | 1.4 | 3.6 | 30 | 47 | 2.6 | 21 | 1.1 | 37 |  | MSB0010600 4K21 (4K21 hVH S55R-T62S hVL S27eY-N28I-H34S-N53R-H93Y) (antibody, V domains shown) VH: EVQLVESGGGLVQPGGSLRLSCAASGFAFSAYDMSWVRQAPGKRLELVAYISSGGRSFYYPDSVKGRFTISRDNAKNSLYLQMNSLRAEDTAVYYCTRHLGFDYWGQGTLVTVSS VL: DIVMTQSPLSLPVTPGEPASISCRSSQSLVNYIGNTYLSWYLQKPGQSPQLLIYKVSRRFSGVPDRFSGSGSGTDFTLKISRVEAEDVGVYYCSQSTYVPPTFGQGTKVEIK | 
0.8 | 3.1 | 39 | 0.9 | 5.1 | 42 | 34 | 1.2 | 10 | 2.1 | 82 | binds | MSB0010603 4K21 (4K21 hVH S56V-T62S hVL N28I-H34S-N53R-H93Y) (antibody, V domains shown, IgG) VH: EVQLVESGGGLVQPGGSLRLSCAASGFAFSAYDMSWVRQAPGKRLELVAYISSGGSVFYYPDSVKGRFTISRDNAKNSLYLQMNSLRAEDTAVYYCTRHLGFDYWGQGTLVTVSS VL: DIVMTQSPLSLPVTPGEPASISCRSSQSLVNSIGNTYLSWYLQKPGQSPQLLIYKVSRRFSGVPDRFSGSGSGTDFTLKISRVEAEDVGVYYCSQSTYVPPTFGQGTKVEIK | 
1.5 | 6 | 20 | 1.7 | 5 | 41 | 34 | 4 | 33 | 1.2 | 24 | binds | MSB0010602 4K21 (4K21 hVH S55K-T62S hVL S27eY-N28I-H34S-N53R-H93Y) (antibody, V domains shown, IgG) VH: EVQLVESGGGLVQPGGSLRLSCAASGFAFSAYDMSWVRQAPGKRLELVAYISSGGKSFYYPDSVKGRFTISRDNAKNSLYLQMNSLRAEDTAVYYCTRHLGFDYWGQGTLVTVSS VL: DIVMTQSPLSLPVTPGEPASISCRSSQSLVNYIGNTYLSWYLQKPGQSPQLLIYKVSRRFSGVPDRFSGSGSGTDFTLKISRVEAEDVGVYYCSQSTYVPPTFGQGTKVEIK | IC50, inhibition of GM-CSF induced IL-8 secretion in U937 cells (65 pM GM-CSF) (human GM-CSF I117 [7]): 267 pM; IC50, inhibition of GM-CSF induced IL-8 secretion in U937 cells (65 pM GM-CSF) (human GM-CSF T117 [8]): 177 pM; IC50, inhibition of GM-CSF induced IL-8 secretion in U937 cells (65 pM GM-CSF) (macaca GM-CSF [9]): 232 pM
0.2 | 0.9 | 130 | 10.8 | 0.1 | 1 | 1410 | 0.1 | 0.7 | 9.3 | 1220 |  | anti-GM-CSF 4K21 hIgG1K antibody (MSB0010259), recombinant chimeric 4K21 (antibody, V domains shown, Murine variable domains fused to human constant IgG1 heavy chain and kappa light chain domains) VH: EVQLVESGGGLVKSGGSLKLSCAASGFAFSAYDMSWVRQTPEKRLELVAYISSGGSSFYYPDTVKGRFTISRDNAKNTLYLQMSSLKSEDTAMYYCTRHLGFDYWGQGTTLTVSS VL: DVVMTQTPLSLPVSLGDQASISCRSSQSLVNSNGNTYLHWFLQKPGQSPKLLIYKVSNRFSGVPDRFSGSGSGTDFTLKISRVEAEDLGVYFCSQSTHVPPTFGGGTKLEIK | Kd (human GM-CSF I117 [10]): 17 pM; Kd (human GM-CSF T117 [11]): 174 pM; Kd (macaca GM-CSF [12]): 104 pM
